Reference: the supplement of paper PMC10065799, “High-throughput profiling of sequence recognition by tyrosine kinases and SH2 domains using bacterial peptide display” (eLife, 2023)

Columns and labels:
Hck = Hck (UniProt P08631); assay: phosphorylation enrichment, bacterial display (enrichment ratio); higher = better substrate or ligand; peptides without Tyr show the background
c-Abl (mouse) = assay: as above
EPHB2 = EPHB2 (UniProt P29323); assay: as above
c-Src = assay: as above
Jak2 = Jak2 (UniProt O60674); assay: as above
Fer (mouse) = assay: as above
MERTK = MERTK (UniProt Q12866); assay: as above
FGFR1 = FGFR1 (UniProt P11362); assay: as above
AncSZ = assay: as above
Fes = Fes (UniProt P07332); assay: as above
Fyn = Fyn (UniProt P06241); assay: as above
EPHB1 = EPHB1 (UniProt P54762); assay: as above
FGFR3 = FGFR3 (UniProt P22607); assay: as above
SHP2-C SH2 = assay: SH2 binding enrichment of the phosphorylated peptide, bacterial display (enrichment ratio); higher = better substrate or ligand; peptides without Tyr show the background
c-Src SH2 = assay: as above
Grb2 SH2 = Grb2 SH2 (UniProt P62993); assay: as above
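For SH2 binding enrichment of the phosphorylated peptide, bacterial display in this document: peptide library displayed on the E. coli surface as eCPX fusions, selected cells deep-sequenced, score is each peptide's frequency after selection divided by its frequency in the input.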
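For phosphorylation enrichment, bacterial display in this document: 11-residue human phosphosite peptides and single-mutation variants displayed on the E. coli surface, counted by deep sequencing, each peptide's frequency after selection divided by its frequency in the unselected input library; frequency after pTyr selection over input frequency; kinase dosed for 20-30% of maximal phosphorylation in three min.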

Fyn, sequence (P06241 whole entry, looked up): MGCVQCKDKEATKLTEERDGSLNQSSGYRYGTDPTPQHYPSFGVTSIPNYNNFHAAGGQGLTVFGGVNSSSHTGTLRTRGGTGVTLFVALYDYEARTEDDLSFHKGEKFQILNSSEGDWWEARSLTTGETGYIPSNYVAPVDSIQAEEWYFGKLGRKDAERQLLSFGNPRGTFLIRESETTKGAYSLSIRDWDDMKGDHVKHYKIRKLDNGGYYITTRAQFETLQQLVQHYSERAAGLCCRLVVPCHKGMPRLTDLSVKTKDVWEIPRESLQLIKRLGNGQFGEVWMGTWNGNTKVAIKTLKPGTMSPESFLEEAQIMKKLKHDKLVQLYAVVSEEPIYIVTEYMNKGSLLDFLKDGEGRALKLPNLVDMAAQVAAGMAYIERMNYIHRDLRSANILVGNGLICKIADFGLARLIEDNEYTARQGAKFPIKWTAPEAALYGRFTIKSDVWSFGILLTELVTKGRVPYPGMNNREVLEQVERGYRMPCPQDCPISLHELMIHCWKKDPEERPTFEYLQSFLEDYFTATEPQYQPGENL
EPHB2, sequence (P29323 whole entry, looked up): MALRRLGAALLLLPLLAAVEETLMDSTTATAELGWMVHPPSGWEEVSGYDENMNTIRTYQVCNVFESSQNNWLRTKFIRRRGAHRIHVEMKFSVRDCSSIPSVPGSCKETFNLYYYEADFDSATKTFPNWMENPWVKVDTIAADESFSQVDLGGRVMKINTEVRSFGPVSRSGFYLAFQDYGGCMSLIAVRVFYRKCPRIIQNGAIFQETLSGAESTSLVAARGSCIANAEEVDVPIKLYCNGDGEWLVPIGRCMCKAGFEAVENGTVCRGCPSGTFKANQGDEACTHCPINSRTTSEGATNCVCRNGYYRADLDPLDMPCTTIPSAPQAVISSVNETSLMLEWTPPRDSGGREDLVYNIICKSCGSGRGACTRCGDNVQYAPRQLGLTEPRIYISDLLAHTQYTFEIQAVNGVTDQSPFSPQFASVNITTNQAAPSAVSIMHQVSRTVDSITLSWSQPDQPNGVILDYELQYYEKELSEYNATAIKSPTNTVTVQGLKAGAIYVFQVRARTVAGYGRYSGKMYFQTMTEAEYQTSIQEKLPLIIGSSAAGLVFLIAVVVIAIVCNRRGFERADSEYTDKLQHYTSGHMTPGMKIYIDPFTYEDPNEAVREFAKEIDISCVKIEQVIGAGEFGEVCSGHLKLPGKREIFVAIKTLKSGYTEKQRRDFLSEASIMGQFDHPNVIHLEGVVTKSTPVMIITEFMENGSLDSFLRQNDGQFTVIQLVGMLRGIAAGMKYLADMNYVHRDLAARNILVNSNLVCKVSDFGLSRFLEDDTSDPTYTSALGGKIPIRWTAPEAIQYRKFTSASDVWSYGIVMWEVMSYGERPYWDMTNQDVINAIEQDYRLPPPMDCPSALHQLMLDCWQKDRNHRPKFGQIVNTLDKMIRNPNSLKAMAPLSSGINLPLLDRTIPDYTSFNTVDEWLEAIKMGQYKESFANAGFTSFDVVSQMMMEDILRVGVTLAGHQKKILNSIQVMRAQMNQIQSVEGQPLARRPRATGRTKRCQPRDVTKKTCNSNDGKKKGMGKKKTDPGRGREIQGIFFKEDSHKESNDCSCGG
MERTK, sequence (Q12866 whole entry, looked up): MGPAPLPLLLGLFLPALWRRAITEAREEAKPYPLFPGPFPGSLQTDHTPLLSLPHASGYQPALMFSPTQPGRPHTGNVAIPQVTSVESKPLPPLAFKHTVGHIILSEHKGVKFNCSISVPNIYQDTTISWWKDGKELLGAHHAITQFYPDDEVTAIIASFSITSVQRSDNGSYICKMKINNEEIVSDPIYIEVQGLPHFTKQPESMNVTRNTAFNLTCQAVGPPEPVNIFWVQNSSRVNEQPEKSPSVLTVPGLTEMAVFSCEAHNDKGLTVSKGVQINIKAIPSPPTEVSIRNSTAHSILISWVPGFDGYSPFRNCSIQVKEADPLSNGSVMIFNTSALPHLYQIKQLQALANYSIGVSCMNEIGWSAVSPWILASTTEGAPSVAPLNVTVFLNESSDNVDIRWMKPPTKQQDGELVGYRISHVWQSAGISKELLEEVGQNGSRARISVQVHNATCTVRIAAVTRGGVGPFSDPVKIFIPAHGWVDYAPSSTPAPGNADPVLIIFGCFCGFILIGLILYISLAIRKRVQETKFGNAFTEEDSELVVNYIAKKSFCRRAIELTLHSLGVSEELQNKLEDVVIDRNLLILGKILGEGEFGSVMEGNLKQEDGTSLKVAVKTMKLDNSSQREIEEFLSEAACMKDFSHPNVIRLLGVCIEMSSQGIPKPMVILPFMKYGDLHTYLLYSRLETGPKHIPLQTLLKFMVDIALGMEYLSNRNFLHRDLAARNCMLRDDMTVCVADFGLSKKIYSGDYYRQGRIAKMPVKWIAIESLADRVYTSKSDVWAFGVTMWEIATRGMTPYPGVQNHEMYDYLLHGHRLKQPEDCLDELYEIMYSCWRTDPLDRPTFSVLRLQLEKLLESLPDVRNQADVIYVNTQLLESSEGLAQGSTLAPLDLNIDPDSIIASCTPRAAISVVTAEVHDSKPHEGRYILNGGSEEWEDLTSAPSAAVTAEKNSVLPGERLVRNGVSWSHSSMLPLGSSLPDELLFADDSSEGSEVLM
FGFR3, sequence (P22607 whole entry, looked up): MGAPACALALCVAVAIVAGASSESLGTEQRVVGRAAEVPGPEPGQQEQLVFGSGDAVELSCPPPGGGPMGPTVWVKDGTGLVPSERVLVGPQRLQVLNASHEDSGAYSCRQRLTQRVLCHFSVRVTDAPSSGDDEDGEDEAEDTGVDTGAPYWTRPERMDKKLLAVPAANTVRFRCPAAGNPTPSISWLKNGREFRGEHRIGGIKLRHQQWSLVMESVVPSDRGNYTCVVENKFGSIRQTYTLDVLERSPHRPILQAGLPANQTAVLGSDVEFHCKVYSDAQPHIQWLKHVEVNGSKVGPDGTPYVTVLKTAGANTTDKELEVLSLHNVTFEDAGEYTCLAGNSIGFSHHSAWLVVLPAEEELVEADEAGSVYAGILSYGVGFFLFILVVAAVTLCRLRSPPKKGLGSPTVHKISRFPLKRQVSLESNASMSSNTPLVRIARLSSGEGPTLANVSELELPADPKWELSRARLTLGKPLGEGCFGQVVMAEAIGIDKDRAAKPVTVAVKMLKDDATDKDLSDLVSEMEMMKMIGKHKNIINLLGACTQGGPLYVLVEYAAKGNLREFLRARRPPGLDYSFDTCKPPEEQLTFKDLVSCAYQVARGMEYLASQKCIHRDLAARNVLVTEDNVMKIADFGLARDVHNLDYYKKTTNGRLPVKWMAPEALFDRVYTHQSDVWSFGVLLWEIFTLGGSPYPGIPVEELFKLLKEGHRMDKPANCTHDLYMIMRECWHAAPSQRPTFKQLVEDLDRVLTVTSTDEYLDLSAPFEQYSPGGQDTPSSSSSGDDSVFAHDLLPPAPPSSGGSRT
Jak2, sequence (O60674 whole entry, looked up): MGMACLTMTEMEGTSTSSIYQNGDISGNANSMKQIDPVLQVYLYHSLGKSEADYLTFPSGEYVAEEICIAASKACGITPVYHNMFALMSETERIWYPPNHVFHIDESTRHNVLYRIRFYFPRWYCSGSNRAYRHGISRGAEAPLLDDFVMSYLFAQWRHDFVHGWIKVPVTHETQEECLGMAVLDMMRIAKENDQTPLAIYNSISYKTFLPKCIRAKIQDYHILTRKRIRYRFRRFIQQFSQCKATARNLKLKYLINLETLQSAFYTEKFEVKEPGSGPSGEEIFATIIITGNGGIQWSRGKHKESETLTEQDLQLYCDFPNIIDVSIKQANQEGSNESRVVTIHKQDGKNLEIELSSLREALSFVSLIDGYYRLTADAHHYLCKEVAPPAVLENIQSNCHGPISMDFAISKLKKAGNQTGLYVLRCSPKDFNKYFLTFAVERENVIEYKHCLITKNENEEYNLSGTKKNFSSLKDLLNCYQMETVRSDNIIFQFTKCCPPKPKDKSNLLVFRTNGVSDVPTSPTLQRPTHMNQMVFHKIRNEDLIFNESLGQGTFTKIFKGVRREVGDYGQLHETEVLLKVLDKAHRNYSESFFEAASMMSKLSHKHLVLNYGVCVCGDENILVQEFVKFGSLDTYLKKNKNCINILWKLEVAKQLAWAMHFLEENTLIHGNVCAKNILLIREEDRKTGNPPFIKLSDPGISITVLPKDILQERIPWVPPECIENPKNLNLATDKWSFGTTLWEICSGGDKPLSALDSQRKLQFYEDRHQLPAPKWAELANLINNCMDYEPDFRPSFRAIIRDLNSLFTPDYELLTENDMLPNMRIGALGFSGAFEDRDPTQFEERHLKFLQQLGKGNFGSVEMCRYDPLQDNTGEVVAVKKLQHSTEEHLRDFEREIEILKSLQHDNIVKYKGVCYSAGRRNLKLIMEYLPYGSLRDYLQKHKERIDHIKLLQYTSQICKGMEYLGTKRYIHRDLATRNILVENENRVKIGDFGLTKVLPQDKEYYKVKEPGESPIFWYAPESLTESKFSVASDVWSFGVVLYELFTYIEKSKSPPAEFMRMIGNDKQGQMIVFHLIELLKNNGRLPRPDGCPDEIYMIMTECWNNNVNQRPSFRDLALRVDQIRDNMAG
Hck, sequence (P08631 whole entry, looked up): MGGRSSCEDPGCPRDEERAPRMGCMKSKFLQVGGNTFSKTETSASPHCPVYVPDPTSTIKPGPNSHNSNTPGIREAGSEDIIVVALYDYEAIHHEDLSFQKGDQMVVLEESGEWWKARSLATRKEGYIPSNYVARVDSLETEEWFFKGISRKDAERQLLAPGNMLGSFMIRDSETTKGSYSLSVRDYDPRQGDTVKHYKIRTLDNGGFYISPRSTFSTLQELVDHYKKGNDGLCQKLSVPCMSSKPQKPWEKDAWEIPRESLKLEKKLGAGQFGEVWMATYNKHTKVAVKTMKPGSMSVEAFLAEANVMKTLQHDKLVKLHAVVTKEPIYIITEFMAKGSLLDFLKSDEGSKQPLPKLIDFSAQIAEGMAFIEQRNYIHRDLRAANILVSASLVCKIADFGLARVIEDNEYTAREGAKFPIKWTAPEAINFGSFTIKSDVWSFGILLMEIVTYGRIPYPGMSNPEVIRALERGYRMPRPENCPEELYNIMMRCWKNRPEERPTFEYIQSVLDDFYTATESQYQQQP

Sequence	SH2 binding enrichment (SHP2-C SH2)	SH2 binding enrichment (c-Src SH2)	SH2 binding enrichment (Grb2 SH2)	phosphorylation enrichment (Hck)	phosphorylation enrichment (c-Abl (mouse))	phosphorylation enrichment (EPHB2)	phosphorylation enrichment (c-Src)	phosphorylation enrichment (Jak2)	phosphorylation enrichment (Fer (mouse))	phosphorylation enrichment (MERTK)	phosphorylation enrichment (FGFR1)	phosphorylation enrichment (AncSZ)	phosphorylation enrichment (Fes)	phosphorylation enrichment (Fyn)	phosphorylation enrichment (EPHB1)	phosphorylation enrichment (FGFR3)
NGVSFYINLCQ [IGF2R_Y2025_YF]	0.651	0.396	0.791	0.567	1.16	0.699	0.472	1.92	0.671	0.478	0.568	1.5	2	0.452	1.11	1.01
TTKGSYSLSVR [HCK_Y180]	0.664	0.51	0.876	0.433	0.624	0.43	0.568	1.04	0.388	0.455	0.558	0.674	0.727	0.461	0.448	0.582
IWDLKYTIENP [SND1_Y178_R174W]	0.755	0.467	1.06	0.433	1.07	0.498	0.688	1.02	0.496	0.426	0.497	1.01	1.16	0.353	0.593	0.82
LRSKQYLRNPP [SHC1_Y315_F312S]	0.82	0.783	1.05	0.4	0.575	0.359	0.399	0.355	0.413	0.364	0.277	0.376	0.619	0.452	0.426	0.37
IYETDYYRKGG [INSR_Y1189]	0.621	0.59	0.863	1.28	0.626	0.673	1.16	0.942	1.54	3.92	0.479	1.05	0.885	1.14	0.645	0.771
NVSILYTASQA [CTNNA1_Y222_P219S]	0.685	0.499	0.921	0.547	0.787	0.51	0.531	0.95	0.629	0.505	0.434	0.892	1.02	0.447	0.548	0.725
ELTAKYLNYYQ [P3H4_Y181]	1.03	1.38	2.21	0.493	0.564	0.642	0.492	0.715	0.445	0.977	0.683	0.781	0.802	0.407	0.705	0.71
FGSRLYKFAFK [FANCD2_Y458_L456R_YF]	0.583	0.568	0.877	0.439	0.456	0.557	0.515	0.582	0.311	0.406	0.399	0.571	0.651	0.433	0.354	0.484
FRNSLYAPDYS [FAM92A_Y226]	0.754	0.568	0.79	0.88	0.493	0.775	0.779	0.58	0.555	4.83	0.66	0.723	0.725	0.734	1.23	0.619
SNPAFYVLEGV [INPPL1_Y987_N982S_YF]	0.752	0.714	0.919	0.441	0.646	0.559	0.732	0.765	0.427	0.517	0.509	0.818	1.06	0.648	0.469	0.63
MSPPGYKLVTG [GJA1_Y286]	0.512	0.286	0.701	0.418	0.485	0.381	0.429	0.686	0.516	0.397	0.476	0.541	0.715	0.427	0.667	0.533

Second part, led by results:

SH2 binding enrichment (SHP2-C SH2)	SH2 binding enrichment (c-Src SH2)	SH2 binding enrichment (Grb2 SH2)	Sequence	phosphorylation enrichment (Hck)	phosphorylation enrichment (c-Abl (mouse))	phosphorylation enrichment (EPHB2)	phosphorylation enrichment (c-Src)	phosphorylation enrichment (Jak2)	phosphorylation enrichment (Fer (mouse))	phosphorylation enrichment (MERTK)	phosphorylation enrichment (FGFR1)	phosphorylation enrichment (AncSZ)	phosphorylation enrichment (Fes)	phosphorylation enrichment (Fyn)	phosphorylation enrichment (EPHB1)	phosphorylation enrichment (FGFR3)
0.737	0.705	0.905	CPYNLYAEQLS [HGD_Y40]	2.39	0.936	2.18	6.33	1.39	1.36	2.67	0.741	1.74	1.34	3.15	2.68	0.988
0.71	0.643	0.734	RKPDIYERLAS [MCM4_Y459]	4.52	0.901	0.903	2.04	0.702	0.943	1.65	0.671	0.846	1.2	0.99	0.927	0.798
0.584	0.39	0.777	ERLLDYTRTVQ [INPP5E_Y439]	0.439	0.853	0.451	0.493	1.06	0.544	0.365	0.518	0.945	1.06	0.495	0.663	0.665
1.61	2	0.884	VYSIDYYRVGG [NTRK2_Y706_T704I]	3.95	0.788	3.13	5.1	7.33	3.79	9.3	10.9	2.29	0.836	6.29	4.12	9.09
1.05	0.44	0.917	QTPVLYAMLYH [MPZ_Y220_D224Y]	5.44	2.58	6.54	3.4	1.89	8.03	8.33	5.59	1.1	1.43	4.4	9.9	4.53
